For assay [1], the target named is non-neddylated CUL1/RBX1 (StrepII2x-CUL1/RBX1), wild type (human) (UniProt Q13616). Briefly: SPR; StrepII2x-CUL1/RBX1 (non-neddylated) captured on a Strep-Tactin CM5 chip (~100 RU), CSN injected in single cycle (40-5120 nM, 180 s contact), 25 C, HBS-P+ with 1 mM TCEP; steady-state fit, 1:1 Langmuir. On the technique in general: SPR reads the build-up and loss of mass on a sensor chip optically.

Assay [2] deals with neddylated CUL1/RBX1 (StrepII2x-^N8CUL1/RBX1), wild type (UniProt Q13616). The assay can be described thus: SPR; StrepII2x-^N8CUL1/RBX1 captured on a Strep-Tactin CM5 chip (~100 RU), CSN injected in single cycle (0.625-80 nM, 80 s contact), 25 C, 10 mM HEPES pH 7.4, 150 mM NaCl, 0.05% Tween 20, 1 mM TCEP; steady-state fit, 1:1 Langmuir.
Assay [3] has as its target ^P32-His-PKA-N8CUL1/RBX1 (CUL1/RBX1 neddylated with His-PKA-NEDD8, 32P-labelled) (UniProt Q13616).

Chain of non-neddylated CUL1/RBX1 (StrepII2x-CUL1/RBX1), wild type (human) (Q13616 whole entry, chain 1 of 2): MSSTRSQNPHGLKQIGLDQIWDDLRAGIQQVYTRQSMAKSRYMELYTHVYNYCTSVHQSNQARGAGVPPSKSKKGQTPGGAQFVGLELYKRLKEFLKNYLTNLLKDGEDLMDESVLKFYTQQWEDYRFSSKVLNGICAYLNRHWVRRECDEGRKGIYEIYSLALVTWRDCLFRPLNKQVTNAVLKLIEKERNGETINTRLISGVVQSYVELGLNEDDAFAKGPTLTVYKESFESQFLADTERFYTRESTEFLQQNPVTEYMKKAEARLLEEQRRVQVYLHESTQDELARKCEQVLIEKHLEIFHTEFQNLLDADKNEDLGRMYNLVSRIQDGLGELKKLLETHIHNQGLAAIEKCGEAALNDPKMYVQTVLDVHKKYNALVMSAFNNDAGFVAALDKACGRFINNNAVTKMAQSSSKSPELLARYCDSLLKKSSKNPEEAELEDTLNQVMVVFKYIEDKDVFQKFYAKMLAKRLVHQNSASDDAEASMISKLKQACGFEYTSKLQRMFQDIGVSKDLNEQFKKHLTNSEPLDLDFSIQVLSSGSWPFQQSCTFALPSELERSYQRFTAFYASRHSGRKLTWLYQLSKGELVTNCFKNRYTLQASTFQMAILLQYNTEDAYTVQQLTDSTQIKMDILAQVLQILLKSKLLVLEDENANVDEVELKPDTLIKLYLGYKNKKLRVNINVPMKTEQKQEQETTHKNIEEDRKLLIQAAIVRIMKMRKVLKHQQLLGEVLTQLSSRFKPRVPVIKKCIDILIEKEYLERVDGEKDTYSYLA
Chain of non-neddylated CUL1/RBX1 (StrepII2x-CUL1/RBX1), wild type (human) (P62877 whole entry, chain 2 of 2, further chain): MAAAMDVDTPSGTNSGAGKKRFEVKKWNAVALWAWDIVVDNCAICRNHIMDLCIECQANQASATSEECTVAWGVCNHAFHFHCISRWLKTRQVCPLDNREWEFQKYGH
Chain of ^P32-His-PKA-N8CUL1/RBX1 (CUL1/RBX1 neddylated with His-PKA-NEDD8, 32P-labelled) (Q13616 whole entry, chain 1 of 3): as the sequence (Q13616 whole entry, chain 1 of 2) above
Chain of ^P32-His-PKA-N8CUL1/RBX1 (CUL1/RBX1 neddylated with His-PKA-NEDD8, 32P-labelled) (P62877 whole entry, chain 2 of 3, further chain): as the sequence (P62877 whole entry, chain 2 of 2, further chain) above
Chain of ^P32-His-PKA-N8CUL1/RBX1 (CUL1/RBX1 neddylated with His-PKA-NEDD8, 32P-labelled) (Q15843 1-76, chain 3 of 3, further chain): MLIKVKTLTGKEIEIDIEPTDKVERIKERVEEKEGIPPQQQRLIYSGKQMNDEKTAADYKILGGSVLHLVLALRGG
Chain of neddylated CUL1/RBX1 (StrepII2x-^N8CUL1/RBX1), wild type (Q13616 whole entry, chain 1 of 3): as the sequence (Q13616 whole entry, chain 1 of 2) above
Chain of neddylated CUL1/RBX1 (StrepII2x-^N8CUL1/RBX1), wild type (P62877 whole entry, chain 2 of 3, further chain): as the sequence (P62877 whole entry, chain 2 of 2, further chain) above
Chain of neddylated CUL1/RBX1 (StrepII2x-^N8CUL1/RBX1), wild type (Q15843 1-76, chain 3 of 3, further chain): as the sequence (Q15843 1-76, chain 3 of 3, further chain) above

As for “8CSN^5H138A (CSN^5H138A complex without CSNAP: CSN1-8, CSN5 H138A) (from UniProt Q13098 1-491; P61201 1-443; Q9UNS2 1-423; Q9BT78 1-406; Q92905 1-334; Q7L5N1 1-327; Q9H9Q2 1-264; Q99627 1-209)”, the dissociation constant Kd in assay [1] was 90 nM; in assay [2], 6 nM.
As to “CSN^5T105F (9CSN with CSN5 T105F) (from UniProt Q13098 1-491; P61201 1-443; Q9UNS2 1-423; Q9BT78 1-406; Q92905 1-334; Q7L5N1 1-327; Q9H9Q2 1-264; Q99627 1-209; Q8WXC6 1-57) (complex)”, the in vitro deneddylation activity, normalised to CSN^5WT in assay [3] is > 50 % reduction.

What is called Kd is the free concentration of one partner at which half of the binding sites on the other are occupied at equilibrium, for simple one-to-one binding.

These data come from article PMC12848000.
